This assay addresses T1, GH receptor-producing cells (Homo sapiens, UniProt P10912).
T1 sequence (P10912 19-638): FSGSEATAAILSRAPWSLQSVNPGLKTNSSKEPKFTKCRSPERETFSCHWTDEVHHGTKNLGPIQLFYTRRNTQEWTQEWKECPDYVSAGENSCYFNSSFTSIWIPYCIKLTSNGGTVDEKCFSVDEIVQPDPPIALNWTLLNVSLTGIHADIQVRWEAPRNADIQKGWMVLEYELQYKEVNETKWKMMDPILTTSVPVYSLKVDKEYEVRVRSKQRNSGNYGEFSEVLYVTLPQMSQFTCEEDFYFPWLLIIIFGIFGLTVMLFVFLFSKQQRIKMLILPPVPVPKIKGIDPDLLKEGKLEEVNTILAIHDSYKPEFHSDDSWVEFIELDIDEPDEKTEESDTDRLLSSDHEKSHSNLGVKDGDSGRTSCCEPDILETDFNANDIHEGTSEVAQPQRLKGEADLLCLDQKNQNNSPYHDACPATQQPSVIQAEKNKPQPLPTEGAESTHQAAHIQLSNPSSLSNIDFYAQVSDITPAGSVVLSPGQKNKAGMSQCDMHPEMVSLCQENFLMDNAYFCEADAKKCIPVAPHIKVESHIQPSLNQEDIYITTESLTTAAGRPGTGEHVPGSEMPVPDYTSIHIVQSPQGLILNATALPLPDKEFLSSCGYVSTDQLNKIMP
Nature of the assay: Cell binding assays (competition with 125I-GH). Particulars: unlabeled competitor, 0° C., 90 minutes. How it is done: Cells are then resuspended and layered over 200 μl ice cold FCS in a 350 μl plastic centrifuge tube and centrifuged (1000 g; […]). The pellet is collected by cutting off the end of the tube and pellet and supernatant counted separately in a gamma counter (Packard).
Specific binding (cpm) is determined as total binding in the absence of a competitor (mean of duplicates) minus binding (cpm) in the presence of 100-fold excess of unlabeled GH (non-specific binding). The non-specific binding is measured for each of the cell types used.

For “GM-CSF: granulocyte-macrophage colony stimulating factor, negative control”, the “inhibition of 125I-GH binding” value is reported as “not”.

For the origin of these results see patent US20100098630A1, “Phenazine and Quinoxaline Substituted Amino Acids and Polypeptides” (AMBRX, INC., priority 2006, published 2010).
